Assay results published in doi:10.64898/2025.12.08.692910 (bioRxiv, 2025).

T1: Helicobacter pylori UreE, wild-type (residues 1-170) (Helicobacter pylori, UniProt Q09064 1-170)
T1 sequence (looked up): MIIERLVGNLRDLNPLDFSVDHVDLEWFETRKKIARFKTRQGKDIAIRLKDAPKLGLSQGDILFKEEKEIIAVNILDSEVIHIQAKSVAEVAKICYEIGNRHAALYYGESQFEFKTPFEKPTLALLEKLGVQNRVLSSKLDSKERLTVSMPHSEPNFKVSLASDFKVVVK

B1: Helicobacter pylori UreE(1-158), C-terminal truncation variant (domain or fragment, UniProt Q09064 1-158, looked up)
chain: MIIERLVGNLRDLNPLDFSVDHVDLEWFETRKKIARFKTRQGKDIAIRLKDAPKLGLSQGDILFKEEKEIIAVNILDSEVIHIQAKSVAEVAKICYEIGNRHAALYYGESQFEFKTPFEKPTLALLEKLGVQNRVLSSKLDSKERLTVSMPHSEPNFK
B2: Helicobacter pylori UreE(1-148), C-terminal truncation variant (domain or fragment, UniProt Q09064 1-148, looked up)
chain: MIIERLVGNLRDLNPLDFSVDHVDLEWFETRKKIARFKTRQGKDIAIRLKDAPKLGLSQGDILFKEEKEIIAVNILDSEVIHIQAKSVAEVAKICYEIGNRHAALYYGESQFEFKTPFEKPTLALLEKLGVQNRVLSSKLDSKERLTV
B3: Helicobacter pylori HypA with C-terminal Strep-tag II (HypAstr) (natural protein, UniProt P0A0U4 1-117, looked up)
chain: MHEYSVVSSLIALCEEHAKKNQAHKIERVVVGIGERSAMDKSLFVSAFETFREESLVCKDAILDIVDEKVELECKDCSHVFKPNALDYGVCEKCHSKNVIITQGNEMRLLSLEMLAE
B4: Helicobacter pylori UreG (enzyme)
chain: MVKIGVCGPVGSGKTALIEALTRHMSKDYDMAVITNDIYTKEDAEFMCKNSVMPRERIIGVETGGCPHTAIREDASMNLEAVEEMHGRFPNLELLLIESGGDNLSATFNPELADFTIFVIDVAEGDKIPRKGGPGITRSDLLVINKIDLAPYVGADLKVMERDSKKMRGEKPFIFTNIRAKEGLDDVIAWIKRNALLED

How the values were obtained:
[1] = biological target: the molecule itself; test: crystal structure
[2] = biological target: B4; test: crystal structure
[3] = biological target: T1, Helicobacter pylori UreE, wild-type …; test: pull-down

Q: Does B1 bind [1]?
A: Result: binds

Q: Does B1 bind [2]?
A: Result: binds

Q: Does B2 bind [1]?
A: Result: binds

Q: Does B2 bind [2]?
A: Result: binds

Q: Does B3 bind [3]?
A: Result: binds

Q: Does B4 bind [1]?
A: Result: binds
